In patent US20060058504A1, “Peptides capable of inducing attraction to the axonal growth and their use for treating neurodegenerative diseases” (Centre National de la Recherche Scientific (CNRS), priority 2002, published 2006):
Read-outs that look alike come from different tables or passages of the source.

Assays:
[1] = target: the molecule itself; test: two-color FACS bead aggregation, mutant to mutant (FIG. 2B)
Protocol: Excess unbound protein was removed by washing with PBS/5% FCS. […] Samples were diluted 1:5000 into ice cold PBS and the proportion of 2 colour aggregates was assessed using a fluorescence activated cell sorter (Becton Dickenson FACSort). […] Every mutant protein was assayed at least 3 separate times and standardised to a wild-type control conducted in parallel.

[2] = target: T1, full-length wild-type human L1 expressed in COS7 cells (human, UniProt P32004 20-1257); test: immunofluorescence of L1Fc on COS cells expressing wild-type L1
T1 construct: whole, on cells; also called wild-type L1; transmembrane L1
Protocol: Briefly, COS-7 cells were transiently transfected with 10 μg DNA per 150 mm culture dish, the soluble Fc chimeric protein was allowed to accumulate in the media for 6 days and was recovered and purified by protein A-Sepharose affinity chromatography. In the binding experiments, L1Fcs were cross-linked to anti-human Fc antibodies (50 μg/ml, Jackson Immunoresearch) for 1 hr at 37° C. […] Following incubation, the cells were fixed with 4% PFA, and processed for double-immunofluorescence detection. NP-1 was detected using a mouse anti-c myc antibody (clone 9E10, Sigma) and L1 using a rat monoclonal anti-L1 antibody. […] After secondary antibody incubation, the cells were washed with PBS and mounted in Mowiol (Calbiochem).

Plexin-A1 = Plexin-A1 (Homo sapiens, UniProt Q9UIW2); test: Binding of L1Fc to Plexin-A1 expressing COS7 cells (immunofluorescence)
full length human L1 = target: T2, full length human L1 (Homo sapiens, UniProt P32004); test: Binding of L1Fc chimeras to COS cells expressing wild-type L1 (immunofluorescence)
T2 construct: transiently transfected with expression vectors encoding full length human L1; expressed in transfected cells; host or cells: COS7
Protocol: The mutant L1Fc chimeras were produced and purified as described previously (De Angelis et al., 1999). Briefly, COS-7 cells were transiently transfected with 10 μg DNA per 150 mm culture dish, the soluble Fc chimeric protein was allowed to accumulate in the media for 6 days and was recovered and purified by protein A-Sepharose affinity chromatography. In the binding experiments, L1Fcs were cross-linked to anti-human Fc antibodies (50 μg/ml, Jackson Immunoresearch) for 1 hr at 37° C. Binding detection to NP-1 requested concentrations of L1Fcs 10 folds higher than L1. Antibody conjugated L1-Fc protein was then incubated with monolayers of COS7 cells transiently transfected with expression vectors encoding full length human L1 or myc-tagged NP-1 where the cytoplasmic domain is deleted (gift of J. Raper, 2000 and Renzi et al., 1999). Following incubation, the cells were fixed with 4% PFA, and processed for double-immunofluorescence detection. NP-1 was detected using a mouse anti-c myc antibody (clone 9E10, Sigma) and L1 using a rat monoclonal anti-L1 antibody. Secondary antibody anti-c-myc (Texas-red conjugated anti-mouse antibodies) was used to detect NP-1, anti-L1 (Texas red conjugated anti-rat antibodies) to detect L1, and anti-Fc (FITC conjugated anti-rabbit antibodies) to detect bound L1Fc chimeras. After secondary antibody incubation, the cells were washed with PBS and mounted in Mowiol (Calbiochem).
Thus, Ig CAMs F3 and TAG-1 (the rodent homologue of axonin-1) ate unlikely to be axonal receptors for L1Fc in the reversion process. […] In the present study however, mutated L1Fc proteins were required to interact with wild-type L1 expressed on growth cones. To formally exclude a role for homophilic binding of L1 in the initiation of the reversion process, it was therefore necessary to examine whether homophilic binding of the mutated L1Fc chimeras to wild-type L1 was also disrupted. Mutated L1Fcs were therefore incubated with COS7 cells transfected with full-length wild-type L1 cDNA and binding was assessed by immunofluorescence. In parallel, homophilic binding of mutant/mutant and mutant/wild-type L1Fcs was compared in a two-color FACS aggregation assay, allowing a quantitative assessment to be made (see Methods). […] Similarly, in the two color FACS assay homophilic binding was restored to 74.4% and 90.5% of wild-type levels for A426D and H210Q respectively (FIG. 2B). […] This mutation however still promoted the L1 Fc induced switching of Sema3A repulsion to attraction in the co-culture assay. Thus, the ability of L1Fc to switch Sema3A repulsion is not dependent on homophilic binding. Consequently, the trans interaction of L1Fc with L1 in the receptor complex is not required for the change in growth cone responsiveness to Sema3A.

[3] = system: cortical axons repelled by Sema3A secreted from the ventral spinal cord; test: Co-culture of cortical slices and ventral spinal cord explants (axon guidance response to Sema3A); type: cell-based, mice
Protocol: Blocks of cortex were dissected from P0 (postnatal day 0) to P2 mice and cut into 250 μm thick slices with a McIlwain tissue chopper. The ventral part of the cervical spinal cord was dissected and cut into 250 μm thick slices. Co-culture of cortical slices and ventral spinal cord explants were performed in a three-dimensional plasma clot, as described previously (Castellani et al., 2000). Cortical slices were oriented in the plasma clot as indicated in FIG. 1B to give to axons equivalent chances to be deflected away or towards the spinal cord explant. Purified wild-type or mutant L1Fc chimeras were added to the culture medium (3 μg/ml). Inhibitors of the guanylyl cyclase (ODQ, 10^−5 M, Sigma) and NOS (7NI, […], Sigma) were added to the culture medium, either alone or with wild-type L1Fc (3 μg/ml). After one or two days in vitro (DIV), the cultures were fixed with 4% paraformaldehyde (PFA) and analyzed by phase contrast microscopy (Axiovert 35-M, Zeiss). A qualitative guidance index was attributed to the co-cultures, to assess the degree of repulsive (negative values) or attractive (positive values) effects (Castellani et al., 2000). The index ranged from −2 (when most fibers grew away from the spinal cord explant) to +2 (when most fibers grew towards the explant), with intermediate situations (index of −1 and +1 for moderate guidance effects). An index of zero was attributed to the cultures showing no preferential growth. Quantitative analysis of axon length and number of axons growing from cortical slices was performed as described previously (Castellani et al., 2000). A proximal and a distal region, each of them covering a 600 μm-piece of cortical tissue were determined for each culture. All fibers extending from these two regions were counted and the length of the three longest fibers was measured, using computer analysis software (Visiolab 2000, Biocom). Immunofluorescence labeling of axons was performed using the mouse anti-phosphorylated neurofilament antibody SMI31 (Stemberger and Meyer Inc.), and Texas red-conjugated secondary anti-mouse antibody (see result obtained for number of axons and axonal length in the following tables 1 and 2).
It has been previously developed an assay system using explants of ventral spinal cord co-cultured with cortical axons in order to determine the factors involved in axonal repulsion and attraction (Castellani et al., 2000). Using this system we have shown that Sema3A secreted from the ventral spinal cord repels cortical axons. In the presence of soluble wild-type L1Fc chimeric protein however, repulsion is switched to attraction (Castellani et al., […]). In the present study, we aimed to identify the L1 interactions underlying the switching process. As Ig domains have been implicated in binding of Ig CAMs to many of their ligands (Brümmendorf and Rathjen, 1996) we hypothesized that they would also be required for L1 Fc-mediated switching. […] L1 Fc chimeras containing pathological missense mutations affecting specific Ig domains (De Angelis et al., 1999 and FIGS. 1A, 1B) were assessed for their ability to reverse Sema3A repulsion to attraction.

[4] = Ctx/vSC co-culture, growth away from spinal cord explant, L1Fc 3 μg/ml, ODQ 10^−5 M
[5] = Ctx/vSC co-culture, growth towards spinal cord explant, L1Fc 3 μg/ml, ODQ 10^−5 M

T2 sequence (P32004 20-1257): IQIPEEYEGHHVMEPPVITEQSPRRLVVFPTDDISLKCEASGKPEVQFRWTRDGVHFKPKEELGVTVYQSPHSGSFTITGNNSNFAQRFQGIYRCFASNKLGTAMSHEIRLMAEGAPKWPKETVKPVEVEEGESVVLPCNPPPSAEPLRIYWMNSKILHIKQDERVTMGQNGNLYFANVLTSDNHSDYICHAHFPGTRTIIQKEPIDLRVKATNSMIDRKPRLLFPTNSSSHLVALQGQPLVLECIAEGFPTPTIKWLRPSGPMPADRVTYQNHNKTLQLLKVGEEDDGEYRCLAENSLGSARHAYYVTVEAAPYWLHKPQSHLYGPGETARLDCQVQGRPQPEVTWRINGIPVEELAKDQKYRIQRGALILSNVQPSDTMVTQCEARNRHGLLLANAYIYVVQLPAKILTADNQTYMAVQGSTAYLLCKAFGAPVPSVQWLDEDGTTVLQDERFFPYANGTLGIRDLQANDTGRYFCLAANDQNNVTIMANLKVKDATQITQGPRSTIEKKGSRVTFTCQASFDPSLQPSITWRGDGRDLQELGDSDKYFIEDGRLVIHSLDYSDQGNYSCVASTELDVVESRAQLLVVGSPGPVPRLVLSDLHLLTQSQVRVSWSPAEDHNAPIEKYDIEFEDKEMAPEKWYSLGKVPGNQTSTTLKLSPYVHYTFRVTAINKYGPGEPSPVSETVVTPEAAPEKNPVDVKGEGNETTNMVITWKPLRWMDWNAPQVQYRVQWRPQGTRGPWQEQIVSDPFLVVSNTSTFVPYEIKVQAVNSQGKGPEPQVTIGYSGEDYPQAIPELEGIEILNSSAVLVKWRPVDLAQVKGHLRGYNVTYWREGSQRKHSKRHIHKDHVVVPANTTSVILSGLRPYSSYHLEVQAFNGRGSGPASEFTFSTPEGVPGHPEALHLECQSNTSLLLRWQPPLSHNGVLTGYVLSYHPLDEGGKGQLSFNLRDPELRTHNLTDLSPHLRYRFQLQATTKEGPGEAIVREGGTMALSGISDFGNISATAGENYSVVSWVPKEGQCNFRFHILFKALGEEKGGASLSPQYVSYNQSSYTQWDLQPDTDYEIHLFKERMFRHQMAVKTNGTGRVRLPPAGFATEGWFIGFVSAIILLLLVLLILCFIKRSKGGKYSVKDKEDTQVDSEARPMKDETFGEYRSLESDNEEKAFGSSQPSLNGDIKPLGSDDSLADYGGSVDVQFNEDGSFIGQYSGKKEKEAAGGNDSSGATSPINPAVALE
Chain of Plexin-A1 (Q9UIW2 27-1896, species assumed): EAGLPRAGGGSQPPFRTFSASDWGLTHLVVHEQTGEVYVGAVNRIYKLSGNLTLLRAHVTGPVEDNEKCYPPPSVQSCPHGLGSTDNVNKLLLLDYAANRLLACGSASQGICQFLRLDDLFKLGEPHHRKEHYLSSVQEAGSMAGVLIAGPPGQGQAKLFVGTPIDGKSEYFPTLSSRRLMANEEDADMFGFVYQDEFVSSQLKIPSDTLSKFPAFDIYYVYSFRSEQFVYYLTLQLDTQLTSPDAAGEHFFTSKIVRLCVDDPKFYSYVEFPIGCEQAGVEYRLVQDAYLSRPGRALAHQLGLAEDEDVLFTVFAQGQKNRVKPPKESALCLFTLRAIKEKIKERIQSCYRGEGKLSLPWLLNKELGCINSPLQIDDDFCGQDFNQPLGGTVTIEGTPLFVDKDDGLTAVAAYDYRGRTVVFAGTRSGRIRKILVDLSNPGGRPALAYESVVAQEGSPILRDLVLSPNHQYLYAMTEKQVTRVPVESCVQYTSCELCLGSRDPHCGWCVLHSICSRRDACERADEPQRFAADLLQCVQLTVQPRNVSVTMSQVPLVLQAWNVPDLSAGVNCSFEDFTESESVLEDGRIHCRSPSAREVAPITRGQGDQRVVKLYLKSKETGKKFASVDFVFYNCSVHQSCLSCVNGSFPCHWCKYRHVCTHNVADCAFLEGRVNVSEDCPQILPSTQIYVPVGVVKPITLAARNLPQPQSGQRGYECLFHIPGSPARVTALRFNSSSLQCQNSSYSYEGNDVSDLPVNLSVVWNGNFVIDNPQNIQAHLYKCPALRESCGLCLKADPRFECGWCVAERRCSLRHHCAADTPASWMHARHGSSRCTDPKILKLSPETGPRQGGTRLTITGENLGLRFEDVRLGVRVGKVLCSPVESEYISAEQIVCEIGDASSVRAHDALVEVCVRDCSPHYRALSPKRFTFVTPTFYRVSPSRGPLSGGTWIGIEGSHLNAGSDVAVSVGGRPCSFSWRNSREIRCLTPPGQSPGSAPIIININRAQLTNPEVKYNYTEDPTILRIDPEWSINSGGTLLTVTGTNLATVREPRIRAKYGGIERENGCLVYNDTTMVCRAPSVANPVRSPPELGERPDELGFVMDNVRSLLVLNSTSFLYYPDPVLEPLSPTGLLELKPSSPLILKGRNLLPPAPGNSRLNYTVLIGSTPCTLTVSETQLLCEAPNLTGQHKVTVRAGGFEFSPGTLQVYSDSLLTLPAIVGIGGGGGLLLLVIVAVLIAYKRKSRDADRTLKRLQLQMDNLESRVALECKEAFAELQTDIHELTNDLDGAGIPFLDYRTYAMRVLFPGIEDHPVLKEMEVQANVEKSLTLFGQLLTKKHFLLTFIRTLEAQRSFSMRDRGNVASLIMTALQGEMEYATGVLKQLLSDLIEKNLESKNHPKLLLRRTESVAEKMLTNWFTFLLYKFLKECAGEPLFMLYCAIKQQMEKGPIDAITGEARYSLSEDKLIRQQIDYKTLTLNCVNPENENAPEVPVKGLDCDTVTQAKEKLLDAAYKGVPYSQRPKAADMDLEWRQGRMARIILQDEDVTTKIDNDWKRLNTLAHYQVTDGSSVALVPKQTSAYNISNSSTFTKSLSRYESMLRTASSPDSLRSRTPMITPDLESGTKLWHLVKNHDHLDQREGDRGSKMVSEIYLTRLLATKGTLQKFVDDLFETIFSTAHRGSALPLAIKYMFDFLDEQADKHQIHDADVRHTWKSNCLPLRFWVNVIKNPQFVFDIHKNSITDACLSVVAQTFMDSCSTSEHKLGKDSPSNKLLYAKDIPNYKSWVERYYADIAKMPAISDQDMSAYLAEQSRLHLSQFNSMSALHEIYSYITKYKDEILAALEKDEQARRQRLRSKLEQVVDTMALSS

Molecule	binding result [1]	binding result [2]	binding to Plexin-A1 expressing cells (Plexin-A1)	binding to Plexin-A1 expressing cells (Plexin-A1; listed as Wild-type L1 Fc)	binding to wild-type L1 expressed in COS cells (full length human L1)	binding to wild-type L1 expressed in COS cells (full length human L1; listed as Wild-type L1 Fc)	Axonal length, Away [3, 4]	Number of axons, Away [3, 4]	Axonal length, Towards [3, 5]	Number of axons, Towards [3, 5]	switching of Sema3A repulsion to attraction by L1Fc chimera ([3]; chimera 3 μg/ml in culture medium)	guidance index ([3]; qualitative index from −2 (repulsion) to +2 (attraction), L1Fc chimeras 3 μg/ml, ODQ 10^−5M)
G121S mutant L1Fc chimera (Fc fusion, UniProt P32004 20-1120, looked up, also called G121S-L1Fc; not shown: immunoglobulin Fc, human) IQIPEEYEGHHVMEPPVITEQSPRRLVVFPTDDISLKCEASGKPEVQFRWTRDGVHFKPKEELGVTVYQSPHSGSFTITGNNSNFAQRFQGIYRCFASNKLSTAMSHEIRLMAEGAPKWPKETVKPVEVEEGESVVLPCNPPPSAEPLRIYWMNSKILHIKQDERVTMGQNGNLYFANVLTSDNHSDYICHAHFPGTRTIIQKEPIDLRVKATNSMIDRKPRLLFPTNSSSHLVALQGQPLVLECIAEGFPTPTIKWLRPSGPMPADRVTYQNHNKTLQLLKVGEEDDGEYRCLAENSLGSARHAYYVTVEAAPYWLHKPQSHLYGPGETARLDCQVQGRPQPEVTWRINGIPVEELAKDQKYRIQRGALILSNVQPSDTMVTQCEARNRHGLLLANAYIYVVQLPAKILTADNQTYMAVQGSTAYLLCKAFGAPVPSVQWLDEDGTTVLQDERFFPYANGTLGIRDLQANDTGRYFCLAANDQNNVTIMANLKVKDATQITQGPRSTIEKKGSRVTFTCQASFDPSLQPSITWRGDGRDLQELGDSDKYFIEDGRLVIHSLDYSDQGNYSCVASTELDVVESRAQLLVVGSPGPVPRLVLSDLHLLTQSQVRVSWSPAEDHNAPIEKYDIEFEDKEMAPEKWYSLGKVPGNQTSTTLKLSPYVHYTFRVTAINKYGPGEPSPVSETVVTPEAAPEKNPVDVKGEGNETTNMVITWKPLRWMDWNAPQVQYRVQWRPQGTRGPWQEQIVSDPFLVVSNTSTFVPYEIKVQAVNSQGKGPEPQVTIGYSGEDYPQAIPELEGIEILNSSAVLVKWRPVDLAQVKGHLRGYNVTYWREGSQRKHSKRHIHKDHVVVPANTTSVILSGLRPYSSYHLEVQAFNGRGSGPASEFTFSTPEGVPGHPEALHLECQSNTSLLLRWQPPLSHNGVLTGYVLSYHPLDEGGKGQLSFNLRDPELRTHNLTDLSPHLRYRFQLQATTKEGPGEAIVREGGTMALSGISDFGNISATAGENYSVVSWVPKEGQCNFRFHILFKALGEEKGGASLSPQYVSYNQSSYTQWDLQPDTDYEIHLFKERMFRHQMAVKTNGTGRVRLPPAGFATE	binds	no binding	–	–	–	–	–	–	–	–	–	–
L1Fc: soluble wild-type L1Fc chimeric protein (protein, left off: a dimerising Fc or GST, soluble wild-type L1Fc chimeric protein) IQIPEEYEGHHVMEPPVITEQSPRRLVVFPTDDISLKCEASGKPEVQFRWTRDGVHFKPKEELGVTVYQSPHSGSFTITGNNSNFAQRFQGIYRCFASNKLGTAMSHEIRLMAEGAPKWPKETVKPVEVEEGESVVLPCNPPPSAEPLRIYWMNSKILHIKQDERVTMGQNGNLYFANVLTSDNHSDYICHAHFPGTRTIIQKEPIDLRVKATNSMIDRKPRLLFPTNSSSHLVALQGQPLVLECIAEGFPTPTIKWLRPSGPMPADRVTYQNHNKTLQLLKVGEEDDGEYRCLAENSLGSARHAYYVTVEAAPYWLHKPQSHLYGPGETARLDCQVQGRPQPEVTWRINGIPVEELAKDQKYRIQRGALILSNVQPSDTMVTQCEARNRHGLLLANAYIYVVQLPAKILTADNQTYMAVQGSTAYLLCKAFGAPVPSVQWLDEDGTTVLQDERFFPYANGTLGIRDLQANDTGRYFCLAANDQNNVTIMANLKVKDATQITQGPRSTIEKKGSRVTFTCQASFDPSLQPSITWRGDGRDLQELGDSDKYFIEDGRLVIHSLDYSDQGNYSCVASTELDVVESRAQLLVVGSPGPVPRLVLSDLHLLTQSQVRVSWSPAEDHNAPIEKYDIEFEDKEMAPEKWYSLGKVPGNQTSTTLKLSPYVHYTFRVTAINKYGPGEPSPVSETVVTPEAAPEKNPVDVKGEGNETTNMVITWKPLRWMDWNAPQVQYRVQWRPQGTRGPWQEQIVSDPFLVVSNTSTFVPYEIKVQAVNSQGKGPEPQVTIGYSGEDYPQAIPELEGIEILNSSAVLVKWRPVDLAQVKGHLRGYNVTYWREGSQRKHSKRHIHKDHVVVPANTTSVILSGLRPYSSYHLEVQAFNGRGSGPASEFTFSTPEGVPGHPEALHLECQSNTSLLLRWQPPLSHNGVLTGYVLSYHPLDEGGKGQLSFNLRDPELRTHNLTDLSPHLRYRFQLQATTKEGPGEAIVREGGTMALSGISDFGNISATAGENYSVVSWVPKEGQCNFRFHILFKALGEEKGGASLSPQYVSYNQSSYTQWDLQPDTDYEIHLFKERMFRHQMAVKTNGTGRVRLPPAGFATE	–	–	no binding to Plexin-A1 expressing cells	not Plexin-A 1-expressing cells	clear binding	bound to L1	198.6 +/− 4	5.8 +/− 0.7	346.8 +/− 5, *	22.6 +/− 1.6, *	switched repulsion to attraction	+1.5
